Assay results taken from publication PMC4144766.

Key:
[1] = molecular target: YFP^N-TaNPSN11 (full-length TaNPSN11 fused to the N-terminal part of YFP) (Triticum aestivum (common wheat)); experiment: split reporter (BiFC, NanoBiT); BiFC in tobacco (Nicotiana benthamiana) protoplasts; YFP^N (pSY736) and YFP^C (pSY735) fusions co-expressed by the polyethylene glycol method; fluorescence monitored 24-48 hours after transformation; fluorescent and observed cells counted from ten fields of vision
[2] = molecular target: YFP^N-TaHSP90 (Triticum aestivum); experiment: as above

Sequence of YFP^N-TaNPSN11 (full-length TaNPSN11 fused to the N-terminal part of YFP) (Triticum aestivum (common wheat)) (main, as listed by the source): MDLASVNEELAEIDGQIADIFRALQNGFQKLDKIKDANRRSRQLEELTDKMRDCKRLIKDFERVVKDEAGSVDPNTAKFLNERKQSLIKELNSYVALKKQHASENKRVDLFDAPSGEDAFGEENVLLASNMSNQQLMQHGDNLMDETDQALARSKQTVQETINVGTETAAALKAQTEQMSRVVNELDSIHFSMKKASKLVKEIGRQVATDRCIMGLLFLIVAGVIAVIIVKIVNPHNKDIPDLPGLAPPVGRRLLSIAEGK

Substance	ratio of fluorescent cells [1]	ratio of fluorescent cells [2]
YFP^C-TaSYP132 (full-length TaSYP132 fused to the C-terminal part of YFP) (natural protein)	0.06	–
YFP^C-TaRAR1 (natural protein)	–	0.25
